# Assay results taken from patent publication US11499200B2, “Methods for determining resistance or susceptibility to HIV entry inhibitors” (Monogram Biosciences, Inc., priority 2005, dated 2022).
# Tests used:
# [1] = tested on: HIV-1 particles pseudotyped with patient-derived or chimeric envelope proteins (gp160); assay: Cell based HIV-1 entry assay (pseudotyped virus, luciferase): entry inhibitor susceptibility; details: FIG. 6; compared with sensitivity to B4
# Method: In this embodiment, drug susceptibility, co-receptor tropism and virus neutralization testing are performed by co-transfecting a host cell with pHIVenv and pHIVlucΔU3. The host cell produces HIV particles that are pseudo-typed with HIV envelope sequences derived from the test virus or subject sample. Virus particles are collected (˜48 h) after transfection and are used to infect target cells that express HIV receptors (e.g. CD4) and co-receptors (e.g. CXCR4, CCR5). After infection (˜72 h) the target cells are lysed and luciferase activity is measured. HIV must complete one round of replication to successfully infect the target host cell and produce luciferase activity. […]
# Drug susceptibility testing was performed using pHIVenv and pHIVluc or pHIVlucΔU3. […] After infection (˜72 h) the target cells are lysed and luciferase activity is measured. […] The amount of luciferase activity detected in the infected cells is used as a direct measure of “infectivity” (FIGS. 1 and 2). […] Drug susceptibility is assessed by comparing the infectivity in the absence of drug to infectivity in the presence of drug. Relative drug susceptibility can be quantified by comparing the susceptibility of the “test” virus to the susceptibility of a well-characterized reference virus (wildtype) derived from a molecular clone of HIV-1, for example NL4-3 or HXB2. […]
# [2] = biological target: clone 3 of FIG. 6 envelope protein with the wild-type residue at position 261 (HIV-1); assay: cell-based or functional assay
# [3] = biological target: clone 3 of FIG. 6 envelope protein (clone 11 of FIGS. 7-9), with L261S (HIV-1); assay: cell-based or functional assay
Substance,"sensitivity to entry inhibitor, sixteen clones of one patient [1]","IC50 of PRO542, log-sigmoid inhibition curves of the entry assay [2] [µg/ml]","IC50 of PRO542, log-sigmoid inhibition curves of the entry assay [3] [µg/ml]"
"TNX-355: HIV entry inhibitor under investigation (Tanox Inc.), listed as CD4 binding site entry inhibitor",varied inversely to sensitivity to B4,,
PRO542 (from UniProt P01730 26-204) (receptor),,0.9,11
